# Laboratory results published in paper PMC9482650, “Quantitative fragmentomics allow affinity mapping of interactomes” (Nature Communications, 2022).
# How the values were obtained:
# Assay in all cases: holdup assay
# Design in all cases: key: below the threshold = too weak to quantify, mostly under pKd 3.1 to 4
# APBA1_2, Q02410 = molecular target: T1, APBA1_2, Q02410
# T1 sequence (Q02410 742-832, limits assumed, looked up): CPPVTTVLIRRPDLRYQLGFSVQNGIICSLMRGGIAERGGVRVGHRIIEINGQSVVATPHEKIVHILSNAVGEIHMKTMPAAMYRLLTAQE
# APBA2_1, Q99767 = molecular target: T2, APBA2_1, Q99767
# T2 sequence (Q99767 563-664, limits assumed, looked up): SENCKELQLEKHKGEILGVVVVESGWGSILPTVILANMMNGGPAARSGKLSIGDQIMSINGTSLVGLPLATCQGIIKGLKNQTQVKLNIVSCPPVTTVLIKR
# APBA2_2, Q99767 = molecular target: T3, APBA2_2, Q99767
# T3 sequence (Q99767 654-744, limits assumed, looked up): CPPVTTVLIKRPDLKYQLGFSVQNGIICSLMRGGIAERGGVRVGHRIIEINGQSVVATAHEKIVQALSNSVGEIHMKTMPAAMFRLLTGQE
# DLG3_2, Q92796 = molecular target: T4, DLG3_2, Q92796
# T4 sequence (Q92796 221-321, limits assumed, looked up): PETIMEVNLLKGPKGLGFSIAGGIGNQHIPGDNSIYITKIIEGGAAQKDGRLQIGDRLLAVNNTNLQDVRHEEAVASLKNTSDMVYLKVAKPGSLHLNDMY
# DLG4_1, P78352 = molecular target: DLG4_1, P78352
# Sequence of DLG4_1, P78352 (P78352 62-152): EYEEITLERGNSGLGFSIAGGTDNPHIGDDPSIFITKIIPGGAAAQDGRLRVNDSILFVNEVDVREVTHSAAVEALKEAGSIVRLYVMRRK
# FRMPD1, Q5SYB0 = molecular target: T5, FRMPD1, Q5SYB0
# T5 sequence (Q5SYB0 52-145, limits assumed, looked up): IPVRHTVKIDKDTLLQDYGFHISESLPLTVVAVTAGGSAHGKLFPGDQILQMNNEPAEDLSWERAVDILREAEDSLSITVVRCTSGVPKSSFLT
# FRMPD3, Q5JV73 = molecular target: FRMPD3, Q5JV73
# Sequence of FRMPD3, Q5JV73 (Q5JV73 12-100): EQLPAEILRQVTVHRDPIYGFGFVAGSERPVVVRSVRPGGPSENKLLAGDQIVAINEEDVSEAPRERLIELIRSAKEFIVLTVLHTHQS
# GRIP1_5, Q9Y3R0 = molecular target: T6, GRIP1_5, Q9Y3R0
# T6 sequence (Q9Y3R0 568-668, limits assumed, looked up): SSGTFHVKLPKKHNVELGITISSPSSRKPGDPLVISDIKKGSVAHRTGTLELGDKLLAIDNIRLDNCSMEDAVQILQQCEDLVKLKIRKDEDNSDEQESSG
# GRIP2_5, Q9C0E4 = molecular target: GRIP2_5, Q9C0E4
# Sequence of GRIP2_5, Q9C0E4 (Q9C0E4 544-642): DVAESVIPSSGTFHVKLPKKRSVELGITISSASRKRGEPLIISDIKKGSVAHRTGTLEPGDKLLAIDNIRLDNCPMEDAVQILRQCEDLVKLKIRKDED
# Inadl_6, Q8NI35 = molecular target: Inadl_6, Q8NI35
# Sequence of Inadl_6, Q8NI35 (Q8NI35 1058-1167): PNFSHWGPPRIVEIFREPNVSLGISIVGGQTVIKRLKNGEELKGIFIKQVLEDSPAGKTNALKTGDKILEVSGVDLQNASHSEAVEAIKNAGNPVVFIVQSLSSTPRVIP
# LNX1_2, Q8TBB1 = molecular target: LNX1_2, Q8TBB1
# Sequence of LNX1_2, Q8TBB1 (Q8TBB1 371-470): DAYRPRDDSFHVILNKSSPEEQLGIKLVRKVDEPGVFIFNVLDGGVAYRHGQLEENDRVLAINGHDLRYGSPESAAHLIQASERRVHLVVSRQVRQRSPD
# LNX2_2, Q8N448 = molecular target: T7, LNX2_2, Q8N448
# T7 sequence (Q8N448 334-432, limits assumed, looked up): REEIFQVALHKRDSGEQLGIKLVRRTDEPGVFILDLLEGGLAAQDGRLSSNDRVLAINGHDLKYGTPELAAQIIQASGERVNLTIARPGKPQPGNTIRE
# LRRC7, Q96NW7 = molecular target: T8, LRRC7, Q96NW7
# T8 sequence (Q96NW7 1440-1537, limits assumed, looked up): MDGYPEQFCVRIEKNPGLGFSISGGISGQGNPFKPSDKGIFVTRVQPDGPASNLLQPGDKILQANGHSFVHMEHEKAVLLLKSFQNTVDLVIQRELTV
# MAGI2_4, Q86UL8 = molecular target: MAGI2_4, Q86UL8
# Sequence of MAGI2_4, Q86UL8 (Q86UL8 772-865): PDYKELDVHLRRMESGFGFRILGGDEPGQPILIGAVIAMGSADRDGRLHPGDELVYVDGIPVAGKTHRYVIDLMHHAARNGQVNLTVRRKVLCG
# MAGI2_5, Q86UL8 = molecular target: MAGI2_5, Q86UL8
# Sequence of MAGI2_5, Q86UL8 (Q86UL8 915-1017): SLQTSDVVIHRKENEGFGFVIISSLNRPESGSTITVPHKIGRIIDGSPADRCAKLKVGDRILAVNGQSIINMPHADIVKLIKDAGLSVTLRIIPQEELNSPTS
# MAST2, Q6P0Q8 = molecular target: MAST2, Q6P0Q8
# Sequence of MAST2, Q6P0Q8 (Q6P0Q8 1099-1202): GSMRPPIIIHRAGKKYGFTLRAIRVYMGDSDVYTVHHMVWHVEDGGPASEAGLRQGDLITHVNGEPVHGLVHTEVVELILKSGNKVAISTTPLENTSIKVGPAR
# MPP2, Q14168 = molecular target: T9, MPP2, Q14168
# T9 sequence (Q14168 180-250, limits assumed, looked up): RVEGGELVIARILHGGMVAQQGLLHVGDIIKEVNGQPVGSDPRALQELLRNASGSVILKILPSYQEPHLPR
# NHERF3_4, Q5T2W1 = molecular target: T10, NHERF3_4, Q5T2W1
# T10 sequence (Q5T2W1 373-468, limits assumed, looked up): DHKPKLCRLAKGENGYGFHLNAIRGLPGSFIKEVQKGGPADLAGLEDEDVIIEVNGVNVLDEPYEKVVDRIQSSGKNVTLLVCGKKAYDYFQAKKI
# NOS1, P29475 = molecular target: NOS1, P29475
# Sequence of NOS1, P29475 (P29475 9-101): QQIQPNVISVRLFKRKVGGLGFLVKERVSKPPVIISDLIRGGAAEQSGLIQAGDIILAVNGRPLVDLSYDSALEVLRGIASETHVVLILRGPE
# PDLIM1, O00151 = molecular target: PDLIM1, O00151
# Sequence of PDLIM1, O00151 (O00151 1-87): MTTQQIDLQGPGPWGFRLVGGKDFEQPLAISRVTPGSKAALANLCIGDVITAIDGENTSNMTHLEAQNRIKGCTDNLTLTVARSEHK
# RADIL, Q96JH8 = molecular target: T11, RADIL, Q96JH8
# T11 sequence (Q96JH8 971-1071, limits assumed, looked up): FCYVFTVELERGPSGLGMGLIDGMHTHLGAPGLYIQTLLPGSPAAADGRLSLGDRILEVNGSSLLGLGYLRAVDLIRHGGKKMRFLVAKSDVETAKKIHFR
# SCRIB_3, Q14160 = molecular target: SCRIB_3, Q14160
# Sequence of SCRIB_3, Q14160 (Q14160 999-1103): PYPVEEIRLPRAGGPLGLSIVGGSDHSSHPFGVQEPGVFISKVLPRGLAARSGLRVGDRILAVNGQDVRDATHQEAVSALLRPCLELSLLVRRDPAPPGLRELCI
# SIPA1L2, Q9P2F8 = molecular target: T12, SIPA1L2, Q9P2F8
# T12 sequence (Q9P2F8 945-1036, limits assumed, looked up): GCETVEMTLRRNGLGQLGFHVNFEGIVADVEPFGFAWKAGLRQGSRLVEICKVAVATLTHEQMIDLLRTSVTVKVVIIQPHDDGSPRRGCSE
# TIAM2, Q8IVF5 = molecular target: T13, TIAM2, Q8IVF5
# T13 sequence (Q8IVF5 885-986, limits assumed, looked up): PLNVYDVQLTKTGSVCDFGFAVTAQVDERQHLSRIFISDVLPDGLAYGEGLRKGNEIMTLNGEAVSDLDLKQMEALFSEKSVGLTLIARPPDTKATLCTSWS
# TJP1_2, Q07157 = molecular target: TJP1_2, Q07157
# Sequence of TJP1_2, Q07157 (Q07157 181-274): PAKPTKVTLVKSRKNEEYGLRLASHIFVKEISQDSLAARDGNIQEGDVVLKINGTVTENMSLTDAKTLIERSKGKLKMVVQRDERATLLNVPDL
# [1] = plain residues with an end cap or a label only (N-terminal biotin on a linker: ado-ado)
# [2] = plain residues with an end cap or a label only (N-terminal biotin on a linker: (peg)3)
binder,measurement,setting,value
"DRIQSCLSDA [SBF1, O95248]",pKd,"APBA1_2, Q02410; [1]",below the threshold
same,pKd,"APBA2_1, Q99767; [1]",below the threshold
same,pKd,"APBA2_2, Q99767; [1]",3.48
same,pKd,"DLG3_2, Q92796; [1]",4.19
same,pKd,"DLG4_1, P78352; [1]",below the threshold
same,pKd,"FRMPD1, Q5SYB0; [1]",below the threshold
same,pKd,"FRMPD3, Q5JV73; [1]",below the threshold
same,pKd,"GRIP1_5, Q9Y3R0; [1]",below the threshold
same,pKd,"GRIP2_5, Q9C0E4; [1]",below the threshold
same,pKd,"Inadl_6, Q8NI35; [1]",below the threshold
same,pKd,"LNX1_2, Q8TBB1; [1]",below the threshold
same,pKd,"LNX2_2, Q8N448; [1]",below the threshold
same,pKd,"LRRC7, Q96NW7; [1]",below the threshold
same,pKd,"MAGI2_4, Q86UL8; [1]",3.7
same,pKd,"MAGI2_5, Q86UL8; [1]",3.6
same,pKd,"MAST2, Q6P0Q8; [1]",4.35
same,pKd,"MPP2, Q14168; [1]",below the threshold
same,pKd,"NHERF3_4, Q5T2W1; [1]",below the threshold
same,pKd,"NOS1, P29475; [1]",below the threshold
same,pKd,"PDLIM1, O00151; [1]",below the threshold
same,pKd,"RADIL, Q96JH8; [1]",below the threshold
same,pKd,"SCRIB_3, Q14160; [1]",below the threshold
same,pKd,"SIPA1L2, Q9P2F8; [1]",below the threshold
same,pKd,"TIAM2, Q8IVF5; [1]",4.03
same,pKd,"TJP1_2, Q07157; [1]",below the threshold
"LKDDELKTKL [SLCO1A2, P46721]",pKd,"APBA1_2, Q02410; [1]",below the threshold
same,pKd,"APBA2_1, Q99767; [1]",below the threshold
same,pKd,"APBA2_2, Q99767; [1]",below the threshold
same,pKd,"DLG3_2, Q92796; [1]",below the threshold
same,pKd,"DLG4_1, P78352; [1]",below the threshold
same,pKd,"FRMPD1, Q5SYB0; [1]",below the threshold
same,pKd,"FRMPD3, Q5JV73; [1]",below the threshold
same,pKd,"GRIP1_5, Q9Y3R0; [1]",below the threshold
same,pKd,"GRIP2_5, Q9C0E4; [1]",below the threshold
same,pKd,"Inadl_6, Q8NI35; [1]",below the threshold
same,pKd,"LNX1_2, Q8TBB1; [1]",below the threshold
same,pKd,"LNX2_2, Q8N448; [1]",below the threshold
same,pKd,"LRRC7, Q96NW7; [1]",below the threshold
same,pKd,"MAGI2_4, Q86UL8; [1]",below the threshold
same,pKd,"MAGI2_5, Q86UL8; [1]",3.75
same,pKd,"MAST2, Q6P0Q8; [1]",5.28
same,pKd,"MPP2, Q14168; [1]",below the threshold
same,pKd,"NHERF3_4, Q5T2W1; [1]",4.91
same,pKd,"NOS1, P29475; [1]",3.5
same,pKd,"PDLIM1, O00151; [1]",below the threshold
same,pKd,"RADIL, Q96JH8; [1]",below the threshold
same,pKd,"SCRIB_3, Q14160; [1]",3.73
same,pKd,"SIPA1L2, Q9P2F8; [1]",below the threshold
same,pKd,"TIAM2, Q8IVF5; [1]",below the threshold
same,pKd,"TJP1_2, Q07157; [1]",below the threshold
"RRRRSQSRESQC [HBV-HBc, P03193]",pKd,"APBA1_2, Q02410; [2]",below the threshold
same,pKd,"APBA2_1, Q99767; [2]",below the threshold
same,pKd,"APBA2_2, Q99767; [2]",below the threshold
same,pKd,"DLG3_2, Q92796; [2]",4.56
same,pKd,"DLG4_1, P78352; [2]",4.31
same,pKd,"FRMPD1, Q5SYB0; [2]",below the threshold
same,pKd,"FRMPD3, Q5JV73; [2]",below the threshold
same,pKd,"GRIP1_5, Q9Y3R0; [2]",below the threshold
same,pKd,"GRIP2_5, Q9C0E4; [2]",below the threshold
same,pKd,"Inadl_6, Q8NI35; [2]",below the threshold
same,pKd,"LNX1_2, Q8TBB1; [2]",below the threshold
same,pKd,"LNX2_2, Q8N448; [2]",below the threshold
same,pKd,"LRRC7, Q96NW7; [2]",below the threshold
same,pKd,"MAGI2_4, Q86UL8; [2]",below the threshold
same,pKd,"MAGI2_5, Q86UL8; [2]",3.89
same,pKd,"MAST2, Q6P0Q8; [2]",4.26
same,pKd,"MPP2, Q14168; [2]",below the threshold
same,pKd,"NHERF3_4, Q5T2W1; [2]",below the threshold
same,pKd,"NOS1, P29475; [2]",below the threshold
same,pKd,"PDLIM1, O00151; [2]",below the threshold
same,pKd,"RADIL, Q96JH8; [2]",below the threshold
same,pKd,"SCRIB_3, Q14160; [2]",4.03
same,pKd,"SIPA1L2, Q9P2F8; [2]",below the threshold
same,pKd,"TIAM2, Q8IVF5; [2]",3.86
same,pKd,"TJP1_2, Q07157; [2]",below the threshold
